The source of these data is patent US11827699 (dated 2023).

What all share (test): SPR
A general note: In SPR one partner is held on a chip, and binding of the other changes the refractive index at the surface.

For experiment [1], the target named is T1, human FcγRIIa H131 (human, UniProt P12318).
T1 chain: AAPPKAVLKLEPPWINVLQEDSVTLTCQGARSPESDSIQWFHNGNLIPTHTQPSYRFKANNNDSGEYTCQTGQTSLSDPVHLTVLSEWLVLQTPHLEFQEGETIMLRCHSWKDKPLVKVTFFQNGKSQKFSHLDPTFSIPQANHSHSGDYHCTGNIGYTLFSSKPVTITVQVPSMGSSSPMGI

For experiment [2], the target named is human FcγRIIIa V158 (human, UniProt P08637).
human FcγRIIIa V158, sequence (P08637 17-208 F176V): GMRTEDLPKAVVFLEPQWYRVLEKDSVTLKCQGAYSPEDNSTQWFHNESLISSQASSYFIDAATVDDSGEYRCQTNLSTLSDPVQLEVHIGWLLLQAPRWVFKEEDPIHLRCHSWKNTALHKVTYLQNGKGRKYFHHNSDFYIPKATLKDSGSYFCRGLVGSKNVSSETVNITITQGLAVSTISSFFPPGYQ
In experiment [3] the target is T2, human FcγRIa (human, UniProt P12314).
T2 chain: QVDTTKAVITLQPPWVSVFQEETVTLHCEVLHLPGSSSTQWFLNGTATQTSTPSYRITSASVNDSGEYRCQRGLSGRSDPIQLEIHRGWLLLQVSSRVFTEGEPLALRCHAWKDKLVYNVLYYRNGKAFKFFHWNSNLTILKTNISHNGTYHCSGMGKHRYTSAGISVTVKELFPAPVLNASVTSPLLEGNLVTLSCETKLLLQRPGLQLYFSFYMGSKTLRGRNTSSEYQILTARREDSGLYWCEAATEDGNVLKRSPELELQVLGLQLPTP

In experiment [4] the target is T3, human FcγRIIa R131 (human, UniProt P12318).
T3 chain: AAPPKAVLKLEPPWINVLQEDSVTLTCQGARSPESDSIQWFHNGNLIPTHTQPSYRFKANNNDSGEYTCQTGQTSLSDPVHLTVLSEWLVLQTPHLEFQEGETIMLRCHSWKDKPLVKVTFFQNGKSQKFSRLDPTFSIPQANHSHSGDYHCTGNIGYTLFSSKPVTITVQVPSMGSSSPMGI

Experiment [5] concerns the target T4, human FcγRIIb (human, UniProt P31994).
T4 chain: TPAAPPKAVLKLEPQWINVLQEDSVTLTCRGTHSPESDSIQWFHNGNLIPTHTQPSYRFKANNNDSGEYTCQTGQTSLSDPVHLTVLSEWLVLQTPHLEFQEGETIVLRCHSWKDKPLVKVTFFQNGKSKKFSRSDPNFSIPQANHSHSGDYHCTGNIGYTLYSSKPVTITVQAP

B1: IL6R-BP264 (antibody)
chain 1: QVQLQESGPGLVKPSETLSLTCAVSGHSISHDHAWSWVRQPPGEGLEWIGFISYSGITNYNPSLQGRVTISRDNSKNTLYLQMNSLRAEDTAVYYCARSLARTTAMDYWGEGTLVTVSSASTKGPSVFPLAPSSKSTSGGTAALGCLVKDYFPEPVTVSWNSGALTSGVHTFPAVLQSSGLYSLSSVVTVPSSSLGTQTYICNVNHKPSNTKVDKKVEPKSCDKTHTCPPCPAPDLLGDDSVFLFPPKPKDTLMISRTPEVTCVVVDVSEEDGEVKFNWYVDGVEVHNAKTKPREEQDNSTYRVVSVLTVLHQDWLNGKEYKCKVSNKALPRPIEKTISKAKGQPREPQVYTLPPSRDELTKNQVSLTCLVKGFYPSDIAVEWESNGQPENNYKTTPPVLDSDGSFFLYSKLTVDKSRWQQGNVFSCSVMHEALHNHYTQESLSLSP
chain 2: not shown
In general, Kd refers to the constant that tells how readily two partners part at equilibrium. A higher Kd goes with lower affinity. Turning to B1, the Kd in experiment [1] was found to be 2800 nM; in experiment [2] it was 26000 nM; in experiment [3], 7.4 nM; in experiment [4], 350 nM.

B2: IL6R-BP480 (antibody)
chain 1: QVQLQESGPGLVKPSETLSLTCAVSGHSISHDHAWSWVRQPPGEGLEWIGFISYSGITNYNPSLQGRVTISRDNSKNTLYLQMNSLRAEDTAVYYCARSLARTTAMDYWGEGTLVTVSSASTKGPSVFPLAPSSKSTSGGTAALGCLVKDYFPEPVTVSWNSGALTSGVHTFPAVLQSSGLYSLSSVVTVPSSSLGTQTYICNVNHKPSNTKVDKKVEPKSCDKTHTCPPCPAPDLLGDDSVFLFPPKPKDTLMISRTPEVTCVVVDLSEDDGEVKFNWYVDGVEVHNAKTKPREEQYNSTYRVVSVLTVLHQDWLNGKEYKCKVSNKALPAPIEKTISKAKGQPREPQVYTLPPSRDELTKNQVSLTCLVKGFYPSDIAVEWESNGQPENNYKTTPPVLDSDGSFFLYSKLTVDKSRWQQGNVFSCSVMHEALHNHYTQESLSLSP
chain 2: not shown
As to B2, the Kd in experiment [1] was determined as 21000 nM; in experiment [5] it was 200 nM; in experiment [2], 46000 nM; in experiment [4] it was 6300 nM.

B3: IL6R-BP507 (antibody)
chain 1: QVQLQESGPGLVKPSETLSLTCAVSGHSISHDHAWSWVRQPPGEGLEWIGFISYSGITNYNPSLQGRVTISRDNSKNTLYLQMNSLRAEDTAVYYCARSLARTTAMDYWGEGTLVTVSSASTKGPSVFPLAPSSKSTSGGTAALGCLVKDYFPEPVTVSWNSGALTSGVHTFPAVLQSSGLYSLSSVVTVPSSSLGTQTYICNVNHKPSNTKVDKKVEPKSCDKTHTCPPCPAPDLLGDDSVFLFPPKPKDTLMISRTPEVTCVVIDVAEEDGPVKFNWYVDGVEVHNAKTKPREEQYNSTYRVVSVLTVLHQDWLNGKEYKCKVSNKALPRPIEKTISKAKGQPREPQVYTLPPSRDELTKNQVSLTCLVKGFYPSDIAVEWESNGQPENNYKTTPPVLDSDGSFFLYSKLTVDKSRWQQGNVFSCSVMHEALHNHYTQESLSLSP
chain 2: not shown
For B3, the Kd is 2.9 nM in experiment [5], 26000 nM in experiment [2], 2.6 nM in experiment [3] and 100 nM in experiment [4].

B4: IL6R-BP445 (antibody)
chain 1: QVQLQESGPGLVKPSETLSLTCAVSGHSISHDHAWSWVRQPPGEGLEWIGFISYSGITNYNPSLQGRVTISRDNSKNTLYLQMNSLRAEDTAVYYCARSLARTTAMDYWGEGTLVTVSSASTKGPSVFPLAPSSKSTSGGTAALGCLVKDYFPEPVTVSWNSGALTSGVHTFPAVLQSSGLYSLSSVVTVPSSSLGTQTYICNVNHKPSNTKVDKKVEPKSCDKTHTCPPCPAPDLLGDDSVFLFPPKPKDTLMISRTPEVTCVVIDVAEEDGEVKFNWYVDGVEVHNAKTKPREEQYNSTYRVVSVLTVLHQDWLNGKEYKCKVSNKALPRPIEKTISKAKGQPREPQVYTLPPSRDELTKNQVSLTCLVKGFYPSDIAVEWESNGQPENNYKTTPPVLDSDGSFFLYSKLTVDKSRWQQGNVFSCSVMHEALHNHYTQESLSLSP
chain 2: not shown
In the case of B4, the Kd in experiment [5] stood at 2.6 nM; in experiment [2], 24000 nM; in experiment [3], 2 nM; in experiment [4] it was 80 nM.

B5: IL6R-BP506 (antibody)
chain 1: QVQLQESGPGLVKPSETLSLTCAVSGHSISHDHAWSWVRQPPGEGLEWIGFISYSGITNYNPSLQGRVTISRDNSKNTLYLQMNSLRAEDTAVYYCARSLARTTAMDYWGEGTLVTVSSASTKGPSVFPLAPSSKSTSGGTAALGCLVKDYFPEPVTVSWNSGALTSGVHTFPAVLQSSGLYSLSSVVTVPSSSLGTQTYICNVNHKPSNTKVDKKVEPKSCDKTHTCPPCPAPDLLGDDSVFLFPPKPKDTLMISRTPEVTCVVIDVAEEDGPVKFNWYVDGVEVHNAKTKPREEQDNSTYRVVSVLTVLHQDWLNGKEYKCKVSNKALPRPIEKTISKAKGQPREPQVYTLPPSRDELTKNQVSLTCLVKGFYPSDIAVEWESNGQPENNYKTTPPVLDSDGSFFLYSKLTVDKSRWQQGNVFSCSVMHEALHNHYTQESLSLSP
chain 2: not shown
In the case of B5, the Kd in experiment [5] was 3.4 nM; in experiment [2], 55000 nM; in experiment [3] it was 3.1 nM; in experiment [4], 120 nM.

B6: IL6R-BP428 (antibody)
chain 1: QVQLQESGPGLVKPSETLSLTCAVSGHSISHDHAWSWVRQPPGEGLEWIGFISYSGITNYNPSLQGRVTISRDNSKNTLYLQMNSLRAEDTAVYYCARSLARTTAMDYWGEGTLVTVSSASTKGPSVFPLAPSSKSTSGGTAALGCLVKDYFPEPVTVSWNSGALTSGVHTFPAVLQSSGLYSLSSVVTVPSSSLGTQTYICNVNHKPSNTKVDKKVEPKSCDKTHTCPPCPAPDLLGDDSVFLFPPKPKDTLMISRTPEVTCVVVDVGEEDGEVKFNWYVDGVEVHNAKTKPREEQYNSTYRVVSVLTVLHQDWLNGKEYKCKVSNKALPRPIEKTISKAKGQPREPQVYTLPPSRDELTKNQVSLTCLVKGFYPSDIAVEWESNGQPENNYKTTPPVLDSDGSFFLYSKLTVDKSRWQQGNVFSCSVMHEALHNHYTQESLSLSP
chain 2: not shown
For B6, the Kd is 32000 nM in experiment [1] and 390 nM in experiment [4].

B7: IL6R-BP268 (antibody)
chain 1: QVQLQESGPGLVKPSETLSLTCAVSGHSISHDHAWSWVRQPPGEGLEWIGFISYSGITNYNPSLQGRVTISRDNSKNTLYLQMNSLRAEDTAVYYCARSLARTTAMDYWGEGTLVTVSSASTKGPSVFPLAPSSKSTSGGTAALGCLVKDYFPEPVTVSWNSGALTSGVHTFPAVLQSSGLYSLSSVVTVPSSSLGTQTYICNVNHKPSNTKVDKKVEPKSCDKTHTCPPCPAPDLLGDDSVFLFPPKPKDTLMISRTPEVTCVVVDVSEEDGEVKFNWYVDGVEVHNAKTKPREEQDNSTYRVVSVLTVLHQDWLNGKEYKCKVSNKALPAPIEKTISKAKGQPREPQVYTLPPSRDELTKNQVSLTCLVKGFYPSDIAVEWESNGQPENNYKTTPPVLDSDGSFFLYSKLTVDKSRWQQGNVFSCSVMHEALHNHYTQESLSLSP
chain 2: not shown
In the case of B7, the Kd in experiment [1] came out at 21000 nM; in experiment [5] it was 92 nM; in experiment [2], 28000 nM; in experiment [3], 4.5 nM.

B8: IL6R-BP490 (antibody)
chain 1: QVQLQESGPGLVKPSETLSLTCAVSGHSISHDHAWSWVRQPPGEGLEWIGFISYSGITNYNPSLQGRVTISRDNSKNTLYLQMNSLRAEDTAVYYCARSLARTTAMDYWGEGTLVTVSSASTKGPSVFPLAPSSKSTSGGTAALGCLVKDYFPEPVTVSWNSGALTSGVHTFPAVLQSSGLYSLSSVVTVPSSSLGTQTYICNVNHKPSNTKVDKKVEPKSCDKTHTCPPCPAPELLGDDSVFLFPPKPKDTLMISRTPEVTCVVIDVAEEDGEVKFNWYVDGVEVHNAKTKPREEQYNSTYRVVSVLTVLHQDWLNGKEYKCKVSNKALPRPIEKTISKAKGQPREPQVYTLPPSRDELTKNQVSLTCLVKGFYPSDIAVEWESNGQPENNYKTTPPVLDSDGSFFLYSKLTVDKSRWQQGNVFSCSVMHEALHNHYTQESLSLSP
chain 2: not shown
Regarding B8, the Kd in experiment [5] stood at 2.4 nM; in experiment [2], 23000 nM; in experiment [3], 4.5 nM; in experiment [4], 110 nM.

B9: IL6R-BP438 (antibody)
chain 1: QVQLQESGPGLVKPSETLSLTCAVSGHSISHDHAWSWVRQPPGEGLEWIGFISYSGITNYNPSLQGRVTISRDNSKNTLYLQMNSLRAEDTAVYYCARSLARTTAMDYWGEGTLVTVSSASTKGPSVFPLAPSSKSTSGGTAALGCLVKDYFPEPVTVSWNSGALTSGVHTFPAVLQSSGLYSLSSVVTVPSSSLGTQTYICNVNHKPSNTKVDKKVEPKSCDKTHTCPPCPAPDLLGDDSVFLFPPKPKDTLMISRTPEVTCVVVDVAEEDGEVKFNWYVDGVEVHNAKTKPREEQYNSTYRVVSVLTVLHQDWLNGKEYKCKVSNKALPRPTEKTISKAKGQPREPQVYTLPPSRDELTKNQVSLTCLVKGFYPSDIAVEWESNGQPENNYKTTPPVLDSDGSFFLYSKLTVDKSRWQQGNVFSCSVMHEALHNHYTQESLSLSP
chain 2: not shown
Take B9: the values for the Kd in experiment [1] and in experiment [4] were 1600 nM and 180 nM, respectively.
